Where two headings read alike, the source gives them in different places.
Tests used:
Experiment in all cases: cell-based or functional assay
[1] = molecular target: T1, CLL1 on CLL1-expressing cells (U937, HL60) (human, UniProt Q5QGZ9 1-265)
T1 sequence (looked up): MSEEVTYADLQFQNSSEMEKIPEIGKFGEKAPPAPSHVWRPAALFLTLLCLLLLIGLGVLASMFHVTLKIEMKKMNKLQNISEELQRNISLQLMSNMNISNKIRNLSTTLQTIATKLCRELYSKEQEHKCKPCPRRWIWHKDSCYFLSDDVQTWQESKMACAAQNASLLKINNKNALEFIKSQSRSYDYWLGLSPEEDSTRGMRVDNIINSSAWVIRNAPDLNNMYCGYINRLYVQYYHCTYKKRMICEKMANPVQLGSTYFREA

[2] = molecular target: T1, CLL1 on CLL1-expressing cells (U937, …); remark: listed apart in the source
[3] = molecular target: T1, CLL1 on CLL1-expressing cells (U937, …); remark: listed apart in the source
[4] = molecular target: T1, CLL1 on CLL1-expressing cells (U937, …); remark: listed apart in the source
[5] = molecular target: T2, B7H3 on B7H3-expressing cells (NCI-H358, NCI-H1048) (human, UniProt Q5ZPR3 29-534)
T2 sequence (looked up): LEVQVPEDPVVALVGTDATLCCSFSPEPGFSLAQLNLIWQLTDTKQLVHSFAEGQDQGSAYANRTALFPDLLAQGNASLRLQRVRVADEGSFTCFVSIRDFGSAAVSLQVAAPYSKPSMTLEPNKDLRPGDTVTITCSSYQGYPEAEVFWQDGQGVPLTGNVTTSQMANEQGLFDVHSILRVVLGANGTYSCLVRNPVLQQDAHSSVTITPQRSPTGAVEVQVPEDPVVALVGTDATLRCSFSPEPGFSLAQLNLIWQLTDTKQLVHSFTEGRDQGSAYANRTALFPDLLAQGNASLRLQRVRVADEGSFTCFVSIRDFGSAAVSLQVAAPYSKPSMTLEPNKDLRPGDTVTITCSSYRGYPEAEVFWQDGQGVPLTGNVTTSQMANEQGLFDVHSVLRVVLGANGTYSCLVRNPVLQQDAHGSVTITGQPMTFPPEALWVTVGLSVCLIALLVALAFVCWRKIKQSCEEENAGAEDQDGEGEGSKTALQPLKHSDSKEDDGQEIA

B1: ADC3-2 (antibody, human IgG1, kappa, V domains shown)
VH: EVQLVQSGAEVKKPGASVKVSCKASGYSFTDYYMHWVRQAPGQGLEWIGRINPYAGAAFYSQNFKDRVTLTVDTSTSTAYLELSSLRSEDTAVYYCAIERGADLEGYAMDYWGQGTLVTVSS
VL: DIQMTQSPSSLSASVGDRVTITCRASQSVSTSSYNYMHWYQQKPGKPPKLLIKYASNLESGVPSRFSGSGSGTDFTLTISSLQPEDFATYYCQHSWEIPLTFGQGTKVEIKR
modifications: conjugator-linker-payload on cysteine thiols after TCEP reduction; positions not given
EC50 (nM) direct cellular killing, HL60 [1]: 8.2 nM | EC50 (nM) direct cellular killing, U937 [1]: 0.2 nM | Emax (%) direct cellular killing, HL60 [1]: 55.9%

B2: ADC3-3 (antibody, human IgG1, kappa, V domains shown)
VH: EVQLVQSGAEVKKPGASVKVSCKASGYSFTDYYMHWVRQAPGQGLEWIGRINPYAGAAFYSQNFKDRVTLTVDTSTSTAYLELSSLRSEDTAVYYCAIERGADLEGYAMDYWGQGTLVTVSS
VL: DIQMTQSPSSLSASVGDRVTITCRASQSVSTSSYNYMHWYQQKPGKPPKLLIKYASNLESGVPSRFSGSGSGTDFTLTISSLQPEDFATYYCQHSWEIPLTFGQGTKVEIKR
modifications: conjugator-linker-payload on cysteine thiols after TCEP reduction; positions not given
EC50 (nM) direct cellular killing, HL60 [1]: 1.6 nM | EC50 (nM) direct cellular killing, U937 [1]: 0.2 nM

B3: ADC3-1 (antibody, human IgG1, kappa, V domains shown)
VH: EVQLVQSGAEVKKPGASVKVSCKASGYSFTDYYMHWVRQAPGQGLEWIGRINPYAGAAFYSQNFKDRVTLTVDTSTSTAYLELSSLRSEDTAVYYCAIERGADLEGYAMDYWGQGTLVTVSS
VL: DIQMTQSPSSLSASVGDRVTITCRASQSVSTSSYNYMHWYQQKPGKPPKLLIKYASNLESGVPSRFSGSGSGTDFTLTISSLQPEDFATYYCQHSWEIPLTFGQGTKVEIKR
modifications: conjugator-linker-payload on cysteine thiols after TCEP reduction; positions not given
EC50 (nM) direct cellular killing, HL60 [1]: 5.7 nM | EC50 (nM) direct cellular killing, U937 [1]: 0.5 nM

B4: ADC3-12 (antibody, human IgG1, kappa, V domains shown)
VH: EVQLVQSGAEVKKPGASVKVSCKASGYSFTDYYMHWVRQAPGQGLEWIGRINPYAGAAFYSQNFKDRVTLTVDTSTSTAYLELSSLRSEDTAVYYCAIERGADLEGYAMDYWGQGTLVTVSS
VL: DIQMTQSPSSLSASVGDRVTITCRASQSVSTSSYNYMHWYQQKPGKPPKLLIKYASNLESGVPSRFSGSGSGTDFTLTISSLQPEDFATYYCQHSWEIPLTFGQGTKVEIKR
modifications: conjugator-linker-payload on cysteine thiols after TCEP reduction; positions not given
EC50 (nM) direct cellular killing, HL60 [2]: 8 nM | EC50 (nM) direct cellular killing, U937 [2]: 0.7 nM | Emax (%) direct cellular killing, HL60 [2]: 81%

B5: ADC3-7 (antibody, human IgG1, kappa, V domains shown)
VH: EVQLVQSGAEVKKPGASVKVSCKASGYSFTDYYMHWVRQAPGQGLEWIGRINPYAGAAFYSQNFKDRVTLTVDTSTSTAYLELSSLRSEDTAVYYCAIERGADLEGYAMDYWGQGTLVTVSS
VL: DIQMTQSPSSLSASVGDRVTITCRASQSVSTSSYNYMHWYQQKPGKPPKLLIKYASNLESGVPSRFSGSGSGTDFTLTISSLQPEDFATYYCQHSWEIPLTFGQGTKVEIKR
modifications: conjugator-linker-payload on cysteine thiols after TCEP reduction; positions not given
EC50 (nM) direct cellular killing, HL60 [3]: 0.4 nM | EC50 (nM) direct cellular killing, U937 [3]: 0.3 nM

B6: ADC3-8 (antibody, human IgG1, kappa, V domains shown)
VH: EVQLVQSGAEVKKPGASVKVSCKASGYSFTDYYMHWVRQAPGQGLEWIGRINPYAGAAFYSQNFKDRVTLTVDTSTSTAYLELSSLRSEDTAVYYCAIERGADLEGYAMDYWGQGTLVTVSS
VL: DIQMTQSPSSLSASVGDRVTITCRASQSVSTSSYNYMHWYQQKPGKPPKLLIKYASNLESGVPSRFSGSGSGTDFTLTISSLQPEDFATYYCQHSWEIPLTFGQGTKVEIKR
modifications: conjugator-linker-payload on cysteine thiols after TCEP reduction; positions not given
EC50 (nM) direct cellular killing, HL60 [3]: 0.1 nM | EC50 (nM) direct cellular killing, U937 [3]: 0.2 nM

B7: ADC3-4 (antibody, human IgG1, kappa, V domains shown)
VH: EVQLVQSGAEVKKPGASVKVSCKASGYSFTDYYMHWVRQAPGQGLEWIGRINPYAGAAFYSQNFKDRVTLTVDTSTSTAYLELSSLRSEDTAVYYCAIERGADLEGYAMDYWGQGTLVTVSS
VL: DIQMTQSPSSLSASVGDRVTITCRASQSVSTSSYNYMHWYQQKPGKPPKLLIKYASNLESGVPSRFSGSGSGTDFTLTISSLQPEDFATYYCQHSWEIPLTFGQGTKVEIKR
modifications: conjugator-linker-payload on cysteine thiols after TCEP reduction; positions not given
EC50 (nM) direct cellular killing, HL60 [1]: 1.1 nM | EC50 (nM) direct cellular killing, U937 [1]: 0.2 nM | Emax (%) direct cellular killing, HL60 [1]: 98%

B8: ADC3-11 (antibody, human IgG1, kappa, V domains shown)
VH: EVQLVQSGAEVKKPGASVKVSCKASGYSFTDYYMHWVRQAPGQGLEWIGRINPYAGAAFYSQNFKDRVTLTVDTSTSTAYLELSSLRSEDTAVYYCAIERGADLEGYAMDYWGQGTLVTVSS
VL: DIQMTQSPSSLSASVGDRVTITCRASQSVSTSSYNYMHWYQQKPGKPPKLLIKYASNLESGVPSRFSGSGSGTDFTLTISSLQPEDFATYYCQHSWEIPLTFGQGTKVEIKR
modifications: conjugator-linker-payload on cysteine thiols after TCEP reduction; positions not given
EC50 (nM) direct cellular killing, HL60 [2]: 4.6 nM | EC50 (nM) direct cellular killing, U937 [2]: 12.8 nM | Emax (%) direct cellular killing, HL60 [2]: 43.9% | Emax (%) direct cellular killing, U937 [2]: 78.7%

B9: ADC3-5 (antibody, human IgG1, kappa, V domains shown)
VH: EVQLVQSGAEVKKPGASVKVSCKASGYSFTDYYMHWVRQAPGQGLEWIGRINPYAGAAFYSQNFKDRVTLTVDTSTSTAYLELSSLRSEDTAVYYCAIERGADLEGYAMDYWGQGTLVTVSS
VL: DIQMTQSPSSLSASVGDRVTITCRASQSVSTSSYNYMHWYQQKPGKPPKLLIKYASNLESGVPSRFSGSGSGTDFTLTISSLQPEDFATYYCQHSWEIPLTFGQGTKVEIKR
modifications: conjugator-linker-payload on cysteine thiols after TCEP reduction; positions not given
EC50 (nM) direct cellular killing, U937 [4]: 1 nM | Emax (%) direct cellular killing, HL60 [4]: 79.8%

B10: ADC3-10 (antibody, human IgG1, kappa, V domains shown)
VH: EVQLVQSGAEVKKPGASVKVSCKASGYSFTDYYMHWVRQAPGQGLEWIGRINPYAGAAFYSQNFKDRVTLTVDTSTSTAYLELSSLRSEDTAVYYCAIERGADLEGYAMDYWGQGTLVTVSS
VL: DIQMTQSPSSLSASVGDRVTITCRASQSVSTSSYNYMHWYQQKPGKPPKLLIKYASNLESGVPSRFSGSGSGTDFTLTISSLQPEDFATYYCQHSWEIPLTFGQGTKVEIKR
modifications: conjugator-linker-payload on cysteine thiols after TCEP reduction; positions not given
EC50 (nM) direct cellular killing, HL60 [2]: 1.2 nM | EC50 (nM) direct cellular killing, U937 [2]: 0.7 nM | Emax (%) direct cellular killing, HL60 [2]: 82.2%

B11: ADC3-9 (antibody, human IgG1, kappa, V domains shown)
VH: EVQLVQSGAEVKKPGASVKVSCKASGYSFTDYYMHWVRQAPGQGLEWIGRINPYAGAAFYSQNFKDRVTLTVDTSTSTAYLELSSLRSEDTAVYYCAIERGADLEGYAMDYWGQGTLVTVSS
VL: DIQMTQSPSSLSASVGDRVTITCRASQSVSTSSYNYMHWYQQKPGKPPKLLIKYASNLESGVPSRFSGSGSGTDFTLTISSLQPEDFATYYCQHSWEIPLTFGQGTKVEIKR
modifications: conjugator-linker-payload on cysteine thiols after TCEP reduction; positions not given
EC50 (nM) direct cellular killing, HL60 [3]: 1.7 nM | EC50 (nM) direct cellular killing, U937 [3]: 0.6 nM

B12: ADC3-6 (antibody, human IgG1, kappa, V domains shown)
VH: EVQLVQSGAEVKKPGASVKVSCKASGYSFTDYYMHWVRQAPGQGLEWIGRINPYAGAAFYSQNFKDRVTLTVDTSTSTAYLELSSLRSEDTAVYYCAIERGADLEGYAMDYWGQGTLVTVSS
VL: DIQMTQSPSSLSASVGDRVTITCRASQSVSTSSYNYMHWYQQKPGKPPKLLIKYASNLESGVPSRFSGSGSGTDFTLTISSLQPEDFATYYCQHSWEIPLTFGQGTKVEIKR
modifications: conjugator-linker-payload on cysteine thiols after TCEP reduction; positions not given
EC50 (nM) direct cellular killing, HL60 [4]: 0.4 nM | EC50 (nM) direct cellular killing, U937 [4]: 0.6 nM

B13: ADC4-1 (antibody, human IgG1, kappa, V domains shown)
VH: QVQLVQSGAEVKKPGSSVKVSCKASGYTFTNYVMHWVRQAPGQGLEWMGYINPYNDDVKYNEKFKGRVTITADESTSTAYMELSSLRSEDTAVYYCARWGYYGSPLYYFDYWGQGTLVTVSS
VL: EIVLTQSPATLSLSPGERATLSCRASSRLIYMHWYQQKPGQAPRPLIYATSNLASGIPARFSGSGSGTDFTLTISSLEPEDFAVYYCQQWNSNPPTFGQGTKVEIKR
modifications: conjugator-linker-payload on cysteine thiols after TCEP reduction; positions not given
EC50 (nM) direct cellular killing, NCI-H358 [5]: 0.1 nM | EC50 (nM) direct cellular killing, NCI-H1048 [5]: 0.6 nM | Emax (%) direct cellular killing, NCI-H358 [5]: 82.8% | Emax (%) direct cellular killing, NCI-H1048 [5]: 83.6%

B14: ADC4-2 (antibody, human IgG1, kappa, V domains shown)
VH: QVQLVQSGAEVKKPGSSVKVSCKASGYTFTNYVMHWVRQAPGQGLEWMGYINPYNDDVKYNEKFKGRVTITADESTSTAYMELSSLRSEDTAVYYCARWGYYGSPLYYFDYWGQGTLVTVSS
VL: EIVLTQSPATLSLSPGERATLSCRASSRLIYMHWYQQKPGQAPRPLIYATSNLASGIPARFSGSGSGTDFTLTISSLEPEDFAVYYCQQWNSNPPTFGQGTKVEIKR
modifications: conjugator-linker-payload on cysteine thiols after TCEP reduction; positions not given
EC50 (nM) direct cellular killing, NCI-H358 [5]: 0.1 nM | Emax (%) direct cellular killing, NCI-H358 [5]: 81% | Emax (%) direct cellular killing, NCI-H1048 [5]: 62%

B15: ADC4-3 (antibody, human IgG1, kappa, V domains shown)
VH: QVQLVQSGAEVKKPGSSVKVSCKASGYTFTNYVMHWVRQAPGQGLEWMGYINPYNDDVKYNEKFKGRVTITADESTSTAYMELSSLRSEDTAVYYCARWGYYGSPLYYFDYWGQGTLVTVSS
VL: EIVLTQSPATLSLSPGERATLSCRASSRLIYMHWYQQKPGQAPRPLIYATSNLASGIPARFSGSGSGTDFTLTISSLEPEDFAVYYCQQWNSNPPTFGQGTKVEIKR
modifications: conjugator-linker-payload on cysteine thiols after TCEP reduction; positions not given
EC50 (nM) direct cellular killing, NCI-H358 [5]: 0.1 nM | EC50 (nM) direct cellular killing, NCI-H1048 [5]: 1.6 nM | Emax (%) direct cellular killing, NCI-H358 [5]: 79.9% | Emax (%) direct cellular killing, NCI-H1048 [5]: 80%
